Reference: PMC2711183 (The EMBO journal, 2009)
Read-outs that look alike come from different tables or passages of the source.

T1: MccB K10A (E. coli) (UniProt Q47506)
T1 sequence: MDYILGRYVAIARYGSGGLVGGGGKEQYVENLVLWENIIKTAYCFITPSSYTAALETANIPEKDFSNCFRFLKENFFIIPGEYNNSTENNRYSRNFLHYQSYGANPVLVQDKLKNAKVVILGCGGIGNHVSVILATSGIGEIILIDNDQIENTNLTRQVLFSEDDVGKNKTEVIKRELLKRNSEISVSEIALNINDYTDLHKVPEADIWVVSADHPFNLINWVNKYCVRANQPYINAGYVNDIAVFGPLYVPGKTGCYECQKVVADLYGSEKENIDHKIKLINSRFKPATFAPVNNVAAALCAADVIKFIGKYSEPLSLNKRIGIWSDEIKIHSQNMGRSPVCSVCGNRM

B1: MccB-His6 (enzyme, E. coli, UniProt Q47506 1-350, looked up)
chain: MDYILGRYVKIARYGSGGLVGGGGKEQYVENLVLWENIIKTAYCFITPSSYTAALETANIPEKDFSNCFRFLKENFFIIPGEYNNSTENNRYSRNFLHYQSYGANPVLVQDKLKNAKVVILGCGGIGNHVSVILATSGIGEIILIDNDQIENTNLTRQVLFSEDDVGKNKTEVIKRELLKRNSEISVSEIALNINDYTDLHKVPEADIWVVSADHPFNLINWVNKYCVRANQPYINAGYVNDIAVFGPLYVPGKTGCYECQKVVADLYGSEKENIDHKIKLINSRFKPATFAPVNNVAAALCAADVIKFIGKYSEPLSLNKRIGIWSDEIKIHSQNMGRSPVCSVCGNRM
B2: MccB (N-terminal His6-tag removed) (enzyme, E. coli, UniProt Q47506 1-350, looked up)
chain: MDYILGRYVKIARYGSGGLVGGGGKEQYVENLVLWENIIKTAYCFITPSSYTAALETANIPEKDFSNCFRFLKENFFIIPGEYNNSTENNRYSRNFLHYQSYGANPVLVQDKLKNAKVVILGCGGIGNHVSVILATSGIGEIILIDNDQIENTNLTRQVLFSEDDVGKNKTEVIKRELLKRNSEISVSEIALNINDYTDLHKVPEADIWVVSADHPFNLINWVNKYCVRANQPYINAGYVNDIAVFGPLYVPGKTGCYECQKVVADLYGSEKENIDHKIKLINSRFKPATFAPVNNVAAALCAADVIKFIGKYSEPLSLNKRIGIWSDEIKIHSQNMGRSPVCSVCGNRM

What was measured:
[1] = system: Nc1ncnc2c1ncn2[C@@H]1O[C@H](COP(=O)(O)OP(=O)(O)OP(=O)(O)O)[C@@H](O)[C@H]1O; test: purified protein; format: biochemical, Escherichia coli; conditions: 75 mM Tris-HCl pH 8.0, 5 mM MgCl2, 2.5 mM TCEP, co-substrate MccA
MccB ΔNTE (E. coli) = test: AUC
crystal structure [2] = target: the molecule itself; test: crystal structure
crystal structure [3] = target: the molecule itself; test: crystal structure; remark: listed apart in the source
MccB K10A (E. coli) = target: T1, MccB K10A (E. coli)
[4] = target: B2; test: crystal structure

| Molecule | Km [1] [µM] | kcat [1] [s⁻¹] | kcat/Km [1] [M⁻¹ s⁻¹] | further results |
| --- | --- | --- | --- | --- |
| MccB (Escherichia coli; C123L) | 220 ± 80 | 0.000306 ± 8.33e-05 | 2.22 |  |
| MccB (Escherichia coli; R94A) | 380 ± 130 | 0.00125 ± 0.000917 | 2.22 |  |
| MccB (Escherichia coli; N241A) | 400 ± 120 | 0.000472 ± 0.000139 | 1.11 |  |
| MccB (Escherichia coli; Y239A) | 380 ± 190 | 5.56e-06 ± 2.22e-06 | 0.0139 |  |
| MccB ΔNTE (domain or fragment) |  |  |  | stoichiometry N (MccB ΔNTE (E. coli)): 2 |
| MccB (Escherichia coli; K10A) | 120 ± 20 | 0.00103 ± 0.000139 | 8.33 |  |
| B1 |  |  |  | binding result (crystal structure [2]): binds |
| B2 |  |  |  | binding result (crystal structure [3]): binds |
| MRTGNAN [SeMet-MccA] |  |  |  | Km for MccA in the MccB-catalysed reaction (HPLC of product formation) (MccB K10A (E. coli)): 370 µM; binding result [4]: binds |
